Assay [1] has as its target T1, neuraminidase (NA) of H1N1 A/Mississippi/3/2001 (influenza A virus H1N1 …). Briefly: cell-based or functional assay.
In assay [2] the target is T2, neuraminidase (NA) of H3N2 A/Wisconsin/67/2005 (influenza A virus H3N2 …). Briefly: cell-based or functional assay.
Assay [3] concerns the target T3, neuraminidase (NA) of H3N2 A/Brisbane/10/2007 (influenza A virus H3N2 …). Briefly: cell-based or functional assay.
Assay [4] concerns the target T4, neuraminidase (NA) of H1N1 A/New Caledonia/20/1999 (influenza A virus H1N1 A/New …). The assay can be described thus: cell-based or functional assay.
In assay [5] the target is T5, neuraminidase (NA) of H1N1 A/Puerto Rico/8/1934 (influenza A virus H1N1 A/Puerto …, UniProt P03468 1-454).
T5 construct: whole, on cells
T5 sequence (P03468 whole entry): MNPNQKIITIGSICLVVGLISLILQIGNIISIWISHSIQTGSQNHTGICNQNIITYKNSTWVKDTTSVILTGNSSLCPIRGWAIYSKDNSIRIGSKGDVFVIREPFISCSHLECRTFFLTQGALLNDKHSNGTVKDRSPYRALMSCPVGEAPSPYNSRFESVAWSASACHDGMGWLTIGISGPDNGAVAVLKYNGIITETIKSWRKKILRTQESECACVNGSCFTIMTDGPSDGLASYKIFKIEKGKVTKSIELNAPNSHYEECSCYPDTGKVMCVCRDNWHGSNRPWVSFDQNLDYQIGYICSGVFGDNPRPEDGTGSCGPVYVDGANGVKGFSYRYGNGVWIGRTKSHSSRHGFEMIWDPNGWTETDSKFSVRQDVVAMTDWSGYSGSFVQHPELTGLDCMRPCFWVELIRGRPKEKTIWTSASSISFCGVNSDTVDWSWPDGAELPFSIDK
Briefly: flow cytometry on NA-transfected 293-F cells. On the technique in general: Flow cytometry measures light scatter and fluorescence of single cells or particles in a stream.

In assay [6] the target is T1, neuraminidase (NA) of H1N1 …. The assay can be described thus: cell-based or functional assay. The source holds these as a separate data set.
Assay [7] concerns the target T2, neuraminidase (NA) of H3N2 …. The assay can be described thus: cell-based or functional assay. The source holds these as a separate data set.
Assay [8] deals with T3, neuraminidase (NA) of H3N2 …. Briefly: cell-based or functional assay. This is another data set of the same source.
Assay [9] has as its target T4, neuraminidase (NA) of H1N1 A/New …. The assay can be described thus: cell-based or functional assay. This is another data set of the same source.
Assay [10] addresses neuraminidase (NA) of H3N2 A/Hong Kong/1/1968 (influenza A virus H3N2 A/Hong …, UniProt Q91MA2 1-469). Briefly: flow cytometry on 293-F cells transfected with NA; '-: no binding'.
Assay [11] has as its target human FcγRIIIa receptor (V158) (human, UniProt P08637 17-254). The assay can be described thus: cell-based or functional assay.

Sequence of human FcγRIIIa receptor (V158) (P08637 17-254 F176V limits assumed): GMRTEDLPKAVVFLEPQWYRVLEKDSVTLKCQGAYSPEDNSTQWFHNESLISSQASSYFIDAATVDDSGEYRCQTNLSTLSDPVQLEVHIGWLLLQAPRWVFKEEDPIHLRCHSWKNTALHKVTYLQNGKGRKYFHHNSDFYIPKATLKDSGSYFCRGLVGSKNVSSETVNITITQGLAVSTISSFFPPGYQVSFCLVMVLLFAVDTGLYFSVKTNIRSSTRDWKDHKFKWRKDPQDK
Sequence of neuraminidase (NA) of H3N2 A/Hong Kong/1/1968 (Q91MA2 whole entry): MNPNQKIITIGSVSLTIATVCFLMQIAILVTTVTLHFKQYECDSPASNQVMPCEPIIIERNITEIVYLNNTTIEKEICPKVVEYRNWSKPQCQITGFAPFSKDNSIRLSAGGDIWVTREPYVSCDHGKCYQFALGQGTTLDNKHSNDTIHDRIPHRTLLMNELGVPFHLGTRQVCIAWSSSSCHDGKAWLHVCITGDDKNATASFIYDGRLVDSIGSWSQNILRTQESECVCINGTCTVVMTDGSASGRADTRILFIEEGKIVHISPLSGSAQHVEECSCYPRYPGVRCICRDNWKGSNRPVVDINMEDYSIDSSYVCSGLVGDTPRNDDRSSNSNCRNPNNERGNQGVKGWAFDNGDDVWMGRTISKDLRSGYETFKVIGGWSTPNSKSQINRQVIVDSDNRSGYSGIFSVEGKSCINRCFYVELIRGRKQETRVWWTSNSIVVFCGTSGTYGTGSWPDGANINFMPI

B1: CR12042 (antibody, V domains shown)
VH: EVQLVESGAEVRKPGSSVKVSCTASGDTFSSYTITWVRQAPGQGLEWMGEIIPIFGTANYAQKFQGRVTLTADESTTTAYMDLSSLRSEDTAVYYCARGPDNHSDRYFYYGMDVWGQGTTVTVSS
VL: EIVLTQSPLSLPVTPGEPASISCRSSQSLLHSTGNNYLDWYLQKPGQSPQLLIYLGSNRASGVPDRFSGSGSGTDFTLKISRVEAEDVGVYYCMQALQTPRTFGQGTKVDIK
Take B1: in assay [1], the “IC50 of virus neutralization (VNA on MDCK cells)” value (“IC50 … (VNA on MDCK cells)” below) stood at 0.2 µg/mL. Further, in [2], the “IC50 of virus neutralization (VNA on MDCK cells; one experiment)” value is above 100 µg/mL. Further, the “IC50 of virus neutralization (VNA on MDCK cells; one experiment)” value in assay [3] is above 100 µg/mL. Also, the “IC50 … (VNA on MDCK cells)” value in [4] is 0.2 µg/mL. The binding result in assay [5] is given as “binds”. Besides, the “EC50 of neuraminidase inhibition (NA-XTD assay, whole virus)” value in assay [6] amounted to 0.12 µg/mL. Further, the “EC50 of neuraminidase inhibition (NA-XTD assay, whole virus; one experiment)” value in [7] was 1.87 µg/mL. Moreover, the “EC50 of neuraminidase inhibition (NA-XTD assay, whole virus; one experiment)” value in [8] is 4.8 µg/mL. In assay [9], the “EC50 of neuraminidase inhibition (NA-XTD assay, whole virus)” value stood at 0.18 µg/mL. Further, the binding result in [10] is reported as “no binding (tested: 5 µg/ml)”. In [11], the “ADCC reporter D/A ratio; A549 targets infected with H1N1 A/Brisbane/59/2007” value was found to be 6.11, the “ADCC reporter D/A ratio; A549 targets infected with H1N1 A/Mississippi/03/2001” value was 17.4, the “ADCC reporter D/A ratio; A549 targets infected with H1N1 A/New Caledonia/20/1999” value came out at 17.7 and the “ADCC reporter D/A ratio; A549 targets infected with H5N1 A/Hong Kong/156/1997” value worked out at 6.87. For the same molecule, in assay [11], the “ADCC reporter EC50; A549 targets infected with H1N1 A/Brisbane/59/2007” value came to 0.08 µg/mL, the “ADCC reporter EC50; A549 targets infected with H1N1 A/Mississippi/03/2001” value stood at 0.14 µg/mL, the “ADCC reporter EC50; A549 targets infected with H1N1 A/New Caledonia/20/1999” value turned out to be 0.28 µg/mL and the “ADCC reporter EC50; A549 targets infected with H5N1 A/Hong Kong/156/1997” value worked out at 0.01 µg/mL.

B2: CR12040 (antibody, V domains shown)
VH: QVQLVQSGAEVKKPGASVKVSCKASGYTFTNYYINWVRQAPGQGLEWMGRINPLHGGTGFAEKFQGRLTMTRDTSTSTVDMELSSLRSEDTAIYYCVKERDTTMATDYYGRSGCFDYWGQGTLVTVSS
VL: EIVLTQSPATLSLSPGERATLSCRASQSVRSYLAWYQQKPGQAPRLLIYDASNRATGIPARFSGSGSGTDFSLTISSLEPEDFAVYYCQQRSNWPITFGQGTRLEIK
As to B2, in [1], the “IC50 … (VNA on MDCK cells)” value is above 50 µg/mL. In addition, in assay [4], the “IC50 … (VNA on MDCK cells)” value was above 50 µg/mL. In addition, the binding result in [5] is listed as “binds”. Besides, in [6], the “EC50 of neuraminidase inhibition (NA-XTD assay, whole virus)” value is above 100 µg/mL. In addition, the “EC50 of neuraminidase inhibition (NA-XTD assay, whole virus)” value in assay [9] was above 100 µg/mL. Besides, the binding result in assay [10] is given as “no binding (tested: 5 µg/ml)”. Also, in [11], the “ADCC reporter D/A ratio; A549 targets infected with H1N1 A/Brisbane/59/2007” value came to 2.73, the “ADCC reporter D/A ratio; A549 targets infected with H1N1 A/Mississippi/03/2001” value amounted to 9.26, the “ADCC reporter D/A ratio; A549 targets infected with H1N1 A/New Caledonia/20/1999” value was 3.19 and the “ADCC reporter D/A ratio; A549 targets infected with H5N1 A/Hong Kong/156/1997” value was found to be 3.1. Also, in assay [11], the “ADCC reporter EC50; A549 targets infected with H1N1 A/Brisbane/59/2007” value was 3.83 µg/mL, the “ADCC reporter EC50; A549 targets infected with H1N1 A/Mississippi/03/2001” value was 0.06 µg/mL, the “ADCC reporter EC50; A549 targets infected with H1N1 A/New Caledonia/20/1999” value stood at 0.07 µg/mL and the “ADCC reporter EC50; A549 targets infected with H5N1 A/Hong Kong/156/1997” value worked out at 1.22 µg/mL.

B3: CR12044 (antibody, V domains shown)
VH: EVQLVQSGSEVRKPGSTVKVSCKGSGGAFRTSVIHWVRQAPGQGLRWMGGIIPTLDTANHAQEFQGRATITADESTTTAYLELSSLRSEDSAVYYCATDYGGNSDRLGSYSFAFDVWGQGTTVTVSS
VL: not shown
B3: the “IC50 … (VNA on MDCK cells)” value in [1] is 0.37 µg/mL. The “IC50 … (VNA on MDCK cells)” value in assay [4] was 0.13 µg/mL. Moreover, in [5], the binding result is reported as “binds”. In assay [6], the “EC50 of neuraminidase inhibition (NA-XTD assay, whole virus)” value came to 0.96 µg/mL. In [9], the “EC50 of neuraminidase inhibition (NA-XTD assay, whole virus)” value was 0.17 µg/mL. Further, the binding result in assay [10] was “no binding (tested: 5 µg/ml)”. In assay [11], the “ADCC reporter D/A ratio; A549 targets infected with H1N1 A/Brisbane/59/2007” value stood at 6.49, the “ADCC reporter D/A ratio; A549 targets infected with H1N1 A/Mississippi/03/2001” value is 20.2, the “ADCC reporter D/A ratio; A549 targets infected with H1N1 A/New Caledonia/20/1999” value amounted to 17.5 and the “ADCC reporter D/A ratio; A549 targets infected with H5N1 A/Hong Kong/156/1997” value was 2.37. Further, in [11], the “ADCC reporter EC50; A549 targets infected with H1N1 A/Brisbane/59/2007” value was 0.28 µg/mL, the “ADCC reporter EC50; A549 targets infected with H1N1 A/Mississippi/03/2001” value worked out at 5.19 µg/mL, the “ADCC reporter EC50; A549 targets infected with H1N1 A/New Caledonia/20/1999” value stood at 0.93 µg/mL and the “ADCC reporter EC50; A549 targets infected with H5N1 A/Hong Kong/156/1997” value worked out at 11.6 µg/mL.

B4: CR12041 (antibody, V domains shown)
VH: EVQLVQSGAEVKKPGASVKVSCKAAGYTFTNYYLHWVRQAPGQGLESMGIINPSSGGTIYAQKFQGRVTMTRDTSTSTVFMELSSLTSEDTAVYYCARAGEGKSRFGEGKLRYFYYGMDVWGQGTTVTVSS
VL: not shown
For B4, in assay [1], the “IC50 … (VNA on MDCK cells)” value was found to be 0.59 µg/mL. In addition, the “IC50 … (VNA on MDCK cells)” value in assay [4] worked out at 0.74 µg/mL. Moreover, in assay [6], the “EC50 of neuraminidase inhibition (NA-XTD assay, whole virus)” value was above 100 µg/mL. Moreover, the “EC50 of neuraminidase inhibition (NA-XTD assay, whole virus)” value in assay [9] was above 100 µg/mL. The binding result in assay [10] was “no binding (tested: 0.5 µg/ml)”. Also, in assay [11], the “ADCC reporter D/A ratio; A549 targets infected with H1N1 A/Brisbane/59/2007” value is 2.15, the “ADCC reporter D/A ratio; A549 targets infected with H1N1 A/Mississippi/03/2001” value amounted to 8.38, the “ADCC reporter D/A ratio; A549 targets infected with H1N1 A/New Caledonia/20/1999” value was 4.08 and the “ADCC reporter D/A ratio; A549 targets infected with H5N1 A/Hong Kong/156/1997” value stood at 5.48. In assay [11], the “ADCC reporter EC50; A549 targets infected with H1N1 A/Brisbane/59/2007” value amounted to 1.97 µg/mL, the “ADCC reporter EC50; A549 targets infected with H1N1 A/Mississippi/03/2001” value worked out at 0.58 µg/mL, the “ADCC reporter EC50; A549 targets infected with H1N1 A/New Caledonia/20/1999” value was found to be 1.61 µg/mL and the “ADCC reporter EC50; A549 targets infected with H5N1 A/Hong Kong/156/1997” value was found to be 1.09 µg/mL.
